Data on ten molecules can be found in patent publication US20250250357A1 (NANJING ZAIMING PHARMACEUTICAL, published 2025).

T1: monkey MSLN full-length protein (NCBI: XP_028696439.1) expressed on HEK293T-monkey MSLN cells (monkey)
T1 construct: Whole encoded precursor
T1 chain: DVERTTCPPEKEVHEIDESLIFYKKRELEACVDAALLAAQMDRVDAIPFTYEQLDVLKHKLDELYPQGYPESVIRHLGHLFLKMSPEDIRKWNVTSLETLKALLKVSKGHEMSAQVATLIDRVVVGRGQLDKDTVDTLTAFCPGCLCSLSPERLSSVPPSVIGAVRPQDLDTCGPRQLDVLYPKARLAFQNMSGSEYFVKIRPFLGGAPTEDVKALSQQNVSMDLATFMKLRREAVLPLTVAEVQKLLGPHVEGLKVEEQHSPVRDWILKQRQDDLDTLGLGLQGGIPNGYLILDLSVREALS

B1: S009-F8-33.12 (antibody, human IgG1, kappa, V domains shown)
VH: EVQLQQSGAELVKPGASVKLSCTASAFNIKDYYMHWVKQRTEQGLEWIGRIDPEDGETKYAPKFQGKATITADTSSNTAYLQLSSLTSEDTAVYYCASGSGTGAMDYWGQGTSVTVSS
VL: DIVMTQSQKFMSTSVGDRVSITCKASQNVRTAVGWYQQKPGQSPKALIYLASNRHTGVPDRFTGSGSGTDFTLTISNVQSEDLADYFCLQHWNSPYTFGGGTKLVIKR
notes: Human-murine chimeric antibody, human IgG1 heavy and kappa light constant regions
B2: S009-F8-36.12 (antibody, human IgG1, kappa, V domains shown)
VH: EVQLQQSGPELVKPGASVKISCKASGYTFTDYYMNWVKQSHGKSLEWIGDINPNNGGTSYNQKFKGKATLTVDKSSSTAYMELRSLTSEDSAVYYCASWGYGSSSRGYFDYWGQGTTLTVSS
VL: QIVLSQSPAILSASPGEKVTMTCRASSSVSYMHWYQQKPGSSPKPWIYATSNLASGVPARFSGSGSGTSYSLTISRVEAEDAATYYCQQWSSNPWTFGGGTKLEIKR
notes: as for B1
B3: S009-F2-56.12 (antibody, human IgG1, kappa, V domains shown)
VH: DVQLQESGPGMVKPSQSLSLTCTVTGYSITSGYDWHWIRHFPGNKLEWMGYISYSGSTNYNPSLKSRISITHDTSKNHFFLKLKSVTTEDTATYYCARGTGPDYWGQGTTLTVSS
VL: B1 VL with G34A, Y49H, A51P, S94Y, Y96L, V105E
notes: human-murine chimeric antibody, human IgG1/kappa constant regions
B4: S009-F2.17.3 (antibody, human IgG1, kappa, V domains shown)
VH: QVQLQQPGTELVTPGASVKLSCKASGYSFTSYWMHWVKQRPGQGLEWIGNINPSNGDTFYNEKFKNKATLTVDKSSSTAYMQLSSLTSEDSAVYYCARGWLRDYWGQGTTLTVSS
VL: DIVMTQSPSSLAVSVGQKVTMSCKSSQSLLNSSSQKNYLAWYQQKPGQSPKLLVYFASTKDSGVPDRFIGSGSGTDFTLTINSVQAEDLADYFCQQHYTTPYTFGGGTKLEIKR
notes: as for B3
B5: S009-F2.23.12 (antibody, human IgG1, kappa, V domains shown)
VH: QVQLQQPGTELVKPGASVKLSCKASGYTFTNYWMHWVKQRPGQGLEWIGNINPSNGGPYYNERFRSKATLTVDKSSSTAYMQLSSLTSEDSAVYYCARPYYGSSYGYFDYWGQGTTLTVSS
VL: DIQMTQSPSSLSASLGGKVTITCKASQDINKYIAWYQHKPGKGPRLLIHYTSELQPGIPSRFSGNGSGRDYSFSISNLEPEDIATYYCLQYANPLRTFGGGTKLEIKR
notes: as for B3
B6: S009-F2.16.10 (antibody, human IgG1, kappa, V domains shown)
VH: QVQLQQPGAELIKPGASVKLSCKASGYTFTSYWMHWVKQRPGQGLEWIGIIHPNIGSTNYNERFKSKATLTVDKSSSTAYMQLSSLTSEDSAVYYCARRSSNYGDWYFDVWGTGTTVTVSS
VL: DIVMTQSHRFMSTSVGDRVSITCKASQDVGTSVAWYQQKPGQSPKLLIYWASTQHTGVPDRFTGSGSGTDFTLTINNVQSEDLLDYFCQQYSSYPLTFGAGTKLELKR
notes: as for B3
B7: S009-F2.39.3 (antibody, human IgG1, kappa, V domains shown)
VH: QVQLQQPGTELVKPGASVKLSCKASGYTFTNYWMHWVKQRPGQGLEWIGNINPSSGDSYYNERFMSKAKMTVDKSSSTAYMQLSSLTSEDSAVYYCARSGGLWLAFWGPGTLVTVSA
VL: DIVMTQSPSSLAMSVGQKVTMSCKSSQTLLNSVSQNNYLAWYQQKPGQSPTLLVYFASTRESGVPDRFIGGGSGTDFTLTISSVQAEDLADYFCQQHYRTPYTFGGGTNLEIKR
notes: as for B3
B8: S009-F2.13.3 (antibody, human IgG1, kappa, V domains shown)
VH: QVQLQQSGAELMKPGASVKLSCKATGYTFTGYWIEWVKQRPGHGLEWIGEILPGSGSTNYNEKFKGKATFTADTSSNTAYMQLSSLTTEDSAIYYCARAGAWFAYWGQGTLVTVSA
VL: QIVLTQSPAIMSASLGERVTMTCTASSSVSSSYLHWYQQKPGSSPKLWTYSTSNLASGVPARFSGSGSGTSYSLTISSMEAEDAATYYCHQYHRSPWTFGGGTKLEIKR
notes: as for B3
B9: S009-F2.21.4 (antibody, human IgG1, kappa, V domains shown)
VH: EVQLQQSGPELVKPGASVKIPCKASGYTFTDYNMDWVKQSHGKSLEWIGDINPNNGGSIYNQRFKGKATLTVDKSSSTAYMELRSLTSEDSAVYYCARRAYYSTGYFDVWGTGTTVTVSS
VL: QIVLTQSPALMSASPGEKVTITCSASSSISYMHWFQQKPGTSPKLWIYSTSTLASGVPARFSGSGSGTSYSLTISRMEAEDTATYYCQQRSSYPPTFGGGTKLEIKR
notes: as for B3
B10: S009-F2.47.1 (antibody, human IgG1, kappa, V domains shown)
VH: QVQLQQPGAELVKPGASVKLSCKASGYTFTSYWMHWVKQRPGQGLEWIGMIHPNSGSTNYNEKFKSKATLTVDKSSSTAYMQLSSLTSEDSAVYYCARPVVPYWYFDVWGTGTTVTVSS
VL: DIVMTQSQKFMSTTVGDRVSITCKASQNVGTAVAWYQQKPGQSPKLLIYSASNRYTGVPDRFTGSGSGTDFTLTISNMQSEDLADYFCQQSSSYPLTFGAGTKLELKR
notes: as for B3

Residue numbers refer to the chain shown, from its start.

T3 sequence (Q13421 other isoform, or with tags, fused parts or gaps limits assumed): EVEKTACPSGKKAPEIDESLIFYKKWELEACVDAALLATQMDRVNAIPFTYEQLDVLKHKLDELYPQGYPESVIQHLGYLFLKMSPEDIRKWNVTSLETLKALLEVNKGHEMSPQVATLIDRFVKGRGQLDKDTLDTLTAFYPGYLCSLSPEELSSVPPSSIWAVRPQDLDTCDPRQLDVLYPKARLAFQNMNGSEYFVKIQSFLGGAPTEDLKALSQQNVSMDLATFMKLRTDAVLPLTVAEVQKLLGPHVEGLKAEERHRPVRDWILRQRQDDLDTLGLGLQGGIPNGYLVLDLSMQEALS
T2 sequence (Q13421 other isoform, or with tags, fused parts or gaps): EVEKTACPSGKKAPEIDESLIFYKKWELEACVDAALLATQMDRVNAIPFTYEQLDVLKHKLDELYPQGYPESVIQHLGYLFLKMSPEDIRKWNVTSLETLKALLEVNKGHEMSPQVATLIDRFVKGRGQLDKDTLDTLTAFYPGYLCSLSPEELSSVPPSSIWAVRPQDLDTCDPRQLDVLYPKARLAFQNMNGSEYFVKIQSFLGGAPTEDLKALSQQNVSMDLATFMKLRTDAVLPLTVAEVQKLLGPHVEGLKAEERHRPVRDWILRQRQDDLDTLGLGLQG

The first assay concerns the target T2, human MSLN-FL-his protein (human, UniProt Q13421 296-580).
T2 construct: Made in HEK293E cells, purified on nickel column; it is put last here; also called human MSLN full-length protein; hMSLN-FL-his; not shown: His tag
The assay is described as follows: ELISA on coated antigen, antibody 10 nM. (In an ELISA, binding on a coated surface is turned into a signal by an enzyme label.)
As for B1, the OD450 is 2.92 OD.

Molecule B2 returned an OD450 of 2.69 OD.

In another assay the target is T2, human MSLN-FL-his protein. As to the kind of experiment: ELISA on coated antigen, antibody 0.001 nM.
Description: (§1) The plate was sealed with a plastic film and incubated at 4° C. overnight. The next day, the plate was washed twice with PBST, and a blocking buffer [PBS+2% (w/w) BSA] was added for blocking at room temperature for 2 h. The blocking buffer was discarded, and a chimeric antibody or negative control antibody serially diluted from 100 nM was added at 50 μL/well. After incubation at 37° C. for 2 h, the plate was washed 3 times with PBST. […] After incubation at 37° C. for 2 h, the plate was washed 5 times with PBST. A TMB substrate was added at 50 μL/well for incubation at room temperature for 5-10 min, and then a stop solution (1.0 N HCl) was added at 50 μL/well.
For B1, the OD450 was determined as 0.11 OD.

Consider B2, for which the OD450 was found to be 0.06 OD.

A further assay concerns the target T3, human MSLN full-length protein (NCBI: AAH09272.1) expressed on HEK293T-hMSLN-B8 cells (human, UniProt Q13421 296-598).
T3 construct: Whole encoded precursor
As to the kind of experiment: FACS on HEK293T-hMSLN-B8 cells.
Description: (§2) The desired cells were expanded to the logarithmic growth phase in a T-75 cell culture flask. […] After the cells from the previous step were subjected to cell counting, the cell pellet was resuspended to 2×10⁶ cells/mL in a blocking buffer of [PBS+2% (w/w) BSA] and added into a 96-well FACS reaction plate at 50 μL/well. A chimeric antibody (a sample to be tested) was added at 50 μL/well, and the plate was incubated on ice for 2 h. […] After the plate was centrifuged and washed 5 times with a PBST buffer, assay and analysis were performed by FACS (FACS CantoII, purchased from BD). Data analysis was performed by software (Flowjo) to obtain the mean fluorescence intensity (MFI) of the cells.
As for B3, the EC50 – broadly, the concentration needed to bring the measured effect to its halfway point – is approximately 0.79 nM and the “Maximum mean fluorescence intensity” value was determined as 67000.

As to B4, the EC50 stood at 3.95 nM and the “Maximum mean fluorescence intensity” value came out at 148000.

Regarding B5, the EC50 turned out to be 2.39 nM and the “Maximum mean fluorescence intensity” value came to 144000.

As to B6, the EC50 was found to be 0.88 nM and the “Maximum mean fluorescence intensity” value was found to be 109000.

On to B7, for which the EC50 came to 5.79 nM and the “Maximum mean fluorescence intensity” value came to 138000.

Turning to B8, the response was half-maximal at 1.15 nM (EC50) and the “Maximum mean fluorescence intensity” value turned out to be 112000.

As to B9, the EC50 was approximately 0.82 nM and the “Maximum mean fluorescence intensity” value worked out at 91800.

As for B10, the EC50 is approximately 0.82 nM and the “Maximum mean fluorescence intensity” value amounted to 98200.

A further assay addresses T2, human MSLN-FL-his protein. As to the kind of experiment: ELISA on coated antigen, no antibody (blank, column 'none').
Description: as §1
Take B1: the OD450 worked out at 0.06 OD.

For the molecule B2, the OD450 worked out at 0.04 OD.

Another assay addresses T2, human MSLN-FL-his protein. As to the kind of experiment: ELISA on coated antigen, antibody 0.01 nM.
Description: as §1
For the molecule B1, the OD450 was found to be 0.43 OD.

Molecule B2 displayed an OD450 of 0.18 OD.

The target of another assay is T2, human MSLN-FL-his protein. The assay is described as follows: ELISA on coated antigen, antibody 0.0001 nM.
Description: as §1
B1 returned an OD450 of 0.05 OD.

In turn, B2 showed an OD450 of 0.05 OD.

Another assay deals with T4, human MSLN-R3 protein (Met487-Ser606 of NCBI AAH09272.1) expressed on HEK293T-hMSLN-R3 cells (human, UniProt Q13421 487-606).
T4 construct: also called Region3
T4 sequence (Q13421 495-614): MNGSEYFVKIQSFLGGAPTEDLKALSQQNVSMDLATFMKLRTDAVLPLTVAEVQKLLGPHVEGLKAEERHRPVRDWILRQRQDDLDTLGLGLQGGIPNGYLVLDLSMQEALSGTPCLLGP
The assay is described as follows: FACS on HEK293T-hMSLN-R3 cells.
Description: as §2
As for B3, the “Maximum mean fluorescence intensity” value was determined as 94 and the binding result was “no binding”.

As for B4, it took 1.48 nM to reach a half-maximal effect (EC50) and the “Maximum mean fluorescence intensity” value is 3840.

As for B5, the EC50 came out at 0.5 nM and the “Maximum mean fluorescence intensity” value was determined as 3880.

Consider B6, for which the “Maximum mean fluorescence intensity” value was 114 and the binding result is on record as “no binding”.

On to B7, for which a half-maximal effect (EC50) was put at 4.19 nM and the “Maximum mean fluorescence intensity” value was found to be 3290.

With B8, the “Maximum mean fluorescence intensity” value worked out at 112 and the binding result is “no binding”.

As for B9, the “Maximum mean fluorescence intensity” value was 348 and the binding result is given as “no binding”.

The target of a further assay is T2, human MSLN-FL-his protein. As to the kind of experiment: ELISA on coated antigen, antibody 0.1 nM.
Description: as §1
B1 came in with an OD450 of 1.61 OD.

For B2, the OD450 is 0.73 OD.

The target of another assay is T5, human MSLN protein endogenously expressed on OVCAR3 tumor cells (human, UniProt Q13421 296-598).
T5 construct: whole, on cells; Endogenous target on OVCAR3 cells; kept apart from the recombinant full-length construct; also called mesothelin
T5 sequence (Q13421 other isoform, or with tags, fused parts or gaps): as the sequence (Q13421 other isoform, or with tags, fused parts or gaps limits assumed) above, with P14R counted along it
As to the kind of experiment: FACS on OVCAR3 cells.
Description: as §2
Turning to B3, a half-maximal effect (EC50) was put at 0.54 nM and the “Maximum mean fluorescence intensity” value is 6140.

Consider B4, for which a half-maximal effect (EC50) was put at 2.92 nM and the “Maximum mean fluorescence intensity” value was 17600.

With B5, a half-maximal effect (EC50) was put at 1 nM and the “Maximum mean fluorescence intensity” value stood at 14600.

Take B6: the EC50 is 2.96 nM and the “Maximum mean fluorescence intensity” value came out at 14400.

On to B7, for which the EC50 turned out to be 5.52 nM and the “Maximum mean fluorescence intensity” value turned out to be 14600.

As to B8, the EC50 was determined as 0.57 nM and the “Maximum mean fluorescence intensity” value is 14800.

For B9, the “Maximum mean fluorescence intensity” value is 5260.

Consider B10, for which the EC50 was 10.4 nM and the “Maximum mean fluorescence intensity” value stood at 15400.

The target in a further assay is T2, human MSLN-FL-his protein. The assay is described as follows: ELISA on coated antigen, antibody 100 nM.
Description: as §1
The molecule B1 displayed an OD450 of 2.95 OD.

B2 yielded an OD450 of 2.71 OD.

The target in a further assay is T2, human MSLN-FL-his protein. As to the kind of experiment: ELISA on coated antigen, antibody 1 nM.
Description: as §1
Take B1: the OD450 was found to be 2.57 OD.

B2 showed an OD450 of 2.21 OD.

Another assay concerns the target T1, monkey MSLN full-length protein (NCBI: …). As to the kind of experiment: FACS on HEK293T-monkey MSLN cells.
Description: as §2
Take B3: the “Maximum mean fluorescence intensity” value was 95 and the binding result is “no binding”.

In the case of B4, the midpoint of the response, the EC50, lay at 1.63 nM and the “Maximum mean fluorescence intensity” value is 24300.

Take B5: the EC50 is approximately 0.83 nM and the “Maximum mean fluorescence intensity” value stood at 20400.

For the molecule B6, the EC50 came to 0.3 nM and the “Maximum mean fluorescence intensity” value stood at 18400.

Turning to B7, a half-maximal response (EC50) required 4.18 nM and the “Maximum mean fluorescence intensity” value is 20800.

As to B8, the “Maximum mean fluorescence intensity” value came to 138 and the binding result was “no binding”.

In the case of B9, the EC50 was determined as 0.44 nM and the “Maximum mean fluorescence intensity” value came to 20100.

For B10, the midpoint of the response, the EC50, lay at 0.32 nM and the “Maximum mean fluorescence intensity” value came to 17100.
